# Test results: the supplement of paper PMC10065799, “High-throughput profiling of sequence recognition by tyrosine kinases and SH2 domains using bacterial peptide display” (eLife, 2023)
# Target: FGFR3 (UniProt P22607)
# Assay: phosphorylation enrichment, bacterial display (enrichment ratio); higher = better substrate or ligand; peptides without Tyr show the background
# 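Also: 11-residue human phosphosite peptides and single-mutation variants displayed on the E. coli surface, counted by deep sequencing, each peptide's frequency after selection divided by its frequency in the unselected input library; frequency after pTyr selection over input frequency; kinase dosed for 20-30% of maximal phosphorylation in three min.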
# Sequence of FGFR3 (P22607 whole entry, looked up): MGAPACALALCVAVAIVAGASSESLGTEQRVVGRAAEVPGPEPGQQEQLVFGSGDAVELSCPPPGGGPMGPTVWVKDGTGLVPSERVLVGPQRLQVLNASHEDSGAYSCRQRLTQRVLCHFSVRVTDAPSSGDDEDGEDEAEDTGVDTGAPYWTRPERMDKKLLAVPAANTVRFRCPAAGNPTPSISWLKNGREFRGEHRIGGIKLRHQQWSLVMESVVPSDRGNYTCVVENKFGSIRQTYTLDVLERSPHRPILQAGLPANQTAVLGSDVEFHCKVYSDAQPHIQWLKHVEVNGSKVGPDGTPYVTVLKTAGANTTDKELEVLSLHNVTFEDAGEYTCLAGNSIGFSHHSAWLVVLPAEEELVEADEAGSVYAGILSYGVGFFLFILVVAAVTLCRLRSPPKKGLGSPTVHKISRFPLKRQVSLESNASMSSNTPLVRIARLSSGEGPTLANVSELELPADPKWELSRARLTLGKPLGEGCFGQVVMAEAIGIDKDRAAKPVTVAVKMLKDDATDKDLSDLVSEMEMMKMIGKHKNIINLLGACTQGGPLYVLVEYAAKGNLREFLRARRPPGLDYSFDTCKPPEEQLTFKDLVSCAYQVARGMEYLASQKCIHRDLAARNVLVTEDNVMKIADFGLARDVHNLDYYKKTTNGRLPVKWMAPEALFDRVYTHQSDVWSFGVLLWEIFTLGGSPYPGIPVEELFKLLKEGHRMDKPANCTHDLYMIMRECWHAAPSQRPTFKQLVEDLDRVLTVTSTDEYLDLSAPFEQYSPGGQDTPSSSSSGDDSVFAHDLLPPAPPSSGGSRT
row,Sequence,phosphorylation enrichment
1,DDPRRYQKYGY [OAS1_Y362],0.446
2,VAVVQYSGTGQ [COL6A1_Y878],0.564
3,TVINKYQGKLF [HGD_Y249],0.401
4,IEKLPYIDKWF [CPS1_Y872_T871P],0.567
5,NRDNTYNPVSE [FGA_Y127_R129P],0.627
6,QNTGVYYDLYG [PTPN11_Y62_D61V],14.5
7,VKPENYRRPDI [VHL_Y175_L178P],0.526
8,THEVRYISAGQ [SLCO4A1_Y77_V78I],0.53
9,KLIMEYLPFGS [JAK2_Y931_YF],0.595
10,ASMAKYYASGI [ACADSB_Y372_E376G],0.568
11,NTEGGYRCICA [CRELD1_Y328],0.636
12,GDEEDYEEIPG [EGFR_opt_E_2015],0.823
13,NAPNSYGRRPI [CDKN2A_Y44],0.81
14,EMTAEYACTRK [ACAD9_Y325],0.551
15,VSRGRYRPEEC [B4GALT4_Y113_Q116E],0.524
16,VIGRMYDFHVL [RPF2_Y109_YF],0.607
17,VHNLDYYKMTT [FGFR3_Y647_K650M],8.96
18,SREALYNETDP [CACNA1A_Y794_M797T],0.815
19,LAAAGYDVKKN [H1-3_Y72_E75K],0.331
20,ALEQKYWALGQ [MAP1A_Y1555],0.665
21,TVDASYFGGRG [ANTXR2_Y380_YF],0.394
22,SVVVPHEPPEV [TP53_Y220_Y220H],0.696
23,CETMEYLESKQ [BTK_Y511_A508T],0.966
24,VDEERYDIEAK [TNNI3_Y112],0.697
25,TNGFTYGSSHQ [MANEA_Y331],0.39
26,GADDSYFTVRS [ZAP70_Y492_A495V_YF],2.62
27,GNFSGYDDAWD [POLR1C_Y36_YF],0.731
28,QRKPSYNQLAS [BRCA2_Y71],0.642
29,VTSLKYSTPPF [BRIP1_Y916_S919P_YF],0.517

# System: Fer (mouse)
# Assay: as above
row,Sequence,phosphorylation enrichment
1,DDPRRYQKYGY [OAS1_Y362],0.403
2,VAVVQYSGTGQ [COL6A1_Y878],0.387
3,TVINKYQGKLF [HGD_Y249],0.372
4,IEKLPYIDKWF [CPS1_Y872_T871P],0.333
5,NRDNTYNPVSE [FGA_Y127_R129P],0.481
6,QNTGVYYDLYG [PTPN11_Y62_D61V],3.07
7,VKPENYRRPDI [VHL_Y175_L178P],0.344
8,THEVRYISAGQ [SLCO4A1_Y77_V78I],0.379
9,KLIMEYLPFGS [JAK2_Y931_YF],0.456
10,ASMAKYYASGI [ACADSB_Y372_E376G],0.473
11,NTEGGYRCICA [CRELD1_Y328],0.498
12,GDEEDYEEIPG [EGFR_opt_E_2015],0.645
13,NAPNSYGRRPI [CDKN2A_Y44],1.2
14,EMTAEYACTRK [ACAD9_Y325],0.497
15,VSRGRYRPEEC [B4GALT4_Y113_Q116E],0.52
16,VIGRMYDFHVL [RPF2_Y109_YF],8.04
17,VHNLDYYKMTT [FGFR3_Y647_K650M],0.522
18,SREALYNETDP [CACNA1A_Y794_M797T],0.663
19,LAAAGYDVKKN [H1-3_Y72_E75K],0.305
20,ALEQKYWALGQ [MAP1A_Y1555],0.436
21,TVDASYFGGRG [ANTXR2_Y380_YF],0.312
22,SVVVPHEPPEV [TP53_Y220_Y220H],0.538
23,CETMEYLESKQ [BTK_Y511_A508T],0.705
24,VDEERYDIEAK [TNNI3_Y112],0.519
25,TNGFTYGSSHQ [MANEA_Y331],0.514
26,GADDSYFTVRS [ZAP70_Y492_A495V_YF],0.484
27,GNFSGYDDAWD [POLR1C_Y36_YF],0.479
28,QRKPSYNQLAS [BRCA2_Y71],0.244
29,VTSLKYSTPPF [BRIP1_Y916_S919P_YF],0.38

# Target: Fes (UniProt P07332)
# Sequence (P07332 whole entry, looked up): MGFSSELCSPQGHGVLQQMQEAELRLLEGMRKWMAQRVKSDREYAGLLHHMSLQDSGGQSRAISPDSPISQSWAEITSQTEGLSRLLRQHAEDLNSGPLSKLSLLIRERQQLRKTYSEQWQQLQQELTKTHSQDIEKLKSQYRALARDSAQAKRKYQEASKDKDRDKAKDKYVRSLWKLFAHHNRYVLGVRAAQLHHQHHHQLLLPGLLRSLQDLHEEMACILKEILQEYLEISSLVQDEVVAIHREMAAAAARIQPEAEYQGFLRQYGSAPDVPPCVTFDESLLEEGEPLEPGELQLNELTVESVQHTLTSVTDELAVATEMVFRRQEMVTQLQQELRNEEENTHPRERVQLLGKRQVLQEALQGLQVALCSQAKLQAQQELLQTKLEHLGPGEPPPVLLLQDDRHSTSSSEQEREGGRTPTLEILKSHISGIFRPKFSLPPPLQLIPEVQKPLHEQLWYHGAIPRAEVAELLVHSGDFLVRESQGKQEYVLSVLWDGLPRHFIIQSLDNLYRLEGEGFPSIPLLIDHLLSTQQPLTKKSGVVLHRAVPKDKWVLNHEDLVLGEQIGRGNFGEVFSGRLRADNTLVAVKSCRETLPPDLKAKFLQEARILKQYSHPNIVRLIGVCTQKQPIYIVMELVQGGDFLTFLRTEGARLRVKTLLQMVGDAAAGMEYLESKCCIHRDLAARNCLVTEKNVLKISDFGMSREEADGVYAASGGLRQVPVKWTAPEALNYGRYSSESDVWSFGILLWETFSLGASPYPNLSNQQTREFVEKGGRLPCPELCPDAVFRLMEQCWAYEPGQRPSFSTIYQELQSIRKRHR
# Assay: as above
row,Sequence,phosphorylation enrichment
1,DDPRRYQKYGY [OAS1_Y362],0.591
2,VAVVQYSGTGQ [COL6A1_Y878],0.71
3,TVINKYQGKLF [HGD_Y249],0.596
4,IEKLPYIDKWF [CPS1_Y872_T871P],1.01
5,NRDNTYNPVSE [FGA_Y127_R129P],0.857
6,QNTGVYYDLYG [PTPN11_Y62_D61V],1.49
7,VKPENYRRPDI [VHL_Y175_L178P],0.699
8,THEVRYISAGQ [SLCO4A1_Y77_V78I],0.705
9,KLIMEYLPFGS [JAK2_Y931_YF],1.09
10,ASMAKYYASGI [ACADSB_Y372_E376G],0.653
11,NTEGGYRCICA [CRELD1_Y328],1.02
12,GDEEDYEEIPG [EGFR_opt_E_2015],1.38
13,NAPNSYGRRPI [CDKN2A_Y44],0.952
14,EMTAEYACTRK [ACAD9_Y325],0.706
15,VSRGRYRPEEC [B4GALT4_Y113_Q116E],0.512
16,VIGRMYDFHVL [RPF2_Y109_YF],0.902
17,VHNLDYYKMTT [FGFR3_Y647_K650M],0.608
18,SREALYNETDP [CACNA1A_Y794_M797T],1.37
19,LAAAGYDVKKN [H1-3_Y72_E75K],0.591
20,ALEQKYWALGQ [MAP1A_Y1555],0.735
21,TVDASYFGGRG [ANTXR2_Y380_YF],0.567
22,SVVVPHEPPEV [TP53_Y220_Y220H],0.949
23,CETMEYLESKQ [BTK_Y511_A508T],1.56
24,VDEERYDIEAK [TNNI3_Y112],1.24
25,TNGFTYGSSHQ [MANEA_Y331],0.576
26,GADDSYFTVRS [ZAP70_Y492_A495V_YF],1
27,GNFSGYDDAWD [POLR1C_Y36_YF],1.43
28,QRKPSYNQLAS [BRCA2_Y71],0.53
29,VTSLKYSTPPF [BRIP1_Y916_S919P_YF],0.841

# Target: Fyn (UniProt P06241)
# Sequence (P06241 whole entry, looked up): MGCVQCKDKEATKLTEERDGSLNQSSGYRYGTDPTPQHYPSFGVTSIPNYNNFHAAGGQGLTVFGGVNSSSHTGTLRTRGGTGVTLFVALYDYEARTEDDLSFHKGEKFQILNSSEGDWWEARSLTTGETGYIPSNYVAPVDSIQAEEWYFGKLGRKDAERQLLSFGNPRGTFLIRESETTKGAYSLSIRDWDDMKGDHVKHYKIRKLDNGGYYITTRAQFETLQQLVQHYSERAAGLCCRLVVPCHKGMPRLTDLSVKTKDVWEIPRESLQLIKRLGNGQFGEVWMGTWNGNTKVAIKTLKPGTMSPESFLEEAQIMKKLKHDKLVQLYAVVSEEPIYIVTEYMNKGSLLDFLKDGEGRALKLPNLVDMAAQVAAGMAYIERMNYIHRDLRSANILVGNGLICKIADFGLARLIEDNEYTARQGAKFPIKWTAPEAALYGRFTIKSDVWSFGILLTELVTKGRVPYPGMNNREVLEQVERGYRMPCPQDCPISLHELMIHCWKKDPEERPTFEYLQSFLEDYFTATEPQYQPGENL
# Assay: as above
row,Sequence,phosphorylation enrichment
1,DDPRRYQKYGY [OAS1_Y362],0.426
2,VAVVQYSGTGQ [COL6A1_Y878],0.357
3,TVINKYQGKLF [HGD_Y249],0.414
4,IEKLPYIDKWF [CPS1_Y872_T871P],0.368
5,NRDNTYNPVSE [FGA_Y127_R129P],0.562
6,QNTGVYYDLYG [PTPN11_Y62_D61V],8.43
7,VKPENYRRPDI [VHL_Y175_L178P],0.333
8,THEVRYISAGQ [SLCO4A1_Y77_V78I],0.391
9,KLIMEYLPFGS [JAK2_Y931_YF],0.401
10,ASMAKYYASGI [ACADSB_Y372_E376G],0.451
11,NTEGGYRCICA [CRELD1_Y328],0.511
12,GDEEDYEEIPG [EGFR_opt_E_2015],0.596
13,NAPNSYGRRPI [CDKN2A_Y44],0.678
14,EMTAEYACTRK [ACAD9_Y325],0.434
15,VSRGRYRPEEC [B4GALT4_Y113_Q116E],0.472
16,VIGRMYDFHVL [RPF2_Y109_YF],0.469
17,VHNLDYYKMTT [FGFR3_Y647_K650M],0.439
18,SREALYNETDP [CACNA1A_Y794_M797T],0.624
19,LAAAGYDVKKN [H1-3_Y72_E75K],0.319
20,ALEQKYWALGQ [MAP1A_Y1555],1.39
21,TVDASYFGGRG [ANTXR2_Y380_YF],0.403
22,SVVVPHEPPEV [TP53_Y220_Y220H],0.466
23,CETMEYLESKQ [BTK_Y511_A508T],0.578
24,VDEERYDIEAK [TNNI3_Y112],0.513
25,TNGFTYGSSHQ [MANEA_Y331],0.492
26,GADDSYFTVRS [ZAP70_Y492_A495V_YF],0.604
27,GNFSGYDDAWD [POLR1C_Y36_YF],0.454
28,QRKPSYNQLAS [BRCA2_Y71],0.399
29,VTSLKYSTPPF [BRIP1_Y916_S919P_YF],0.472
